Tests used:
[1] = biological target: T1, CD3 epsilon (Homo sapiens, UniProt P07766 P07766:23-126); experiment: HPLC size exclusion; negative control sequence; details: tags: Fc chimera His tag, Abcam ab220590; label: Cy5
Method: Top five candidates (CS6, CS7, CS8, CS9, and CS8c; SEQ ID NOs: 88-92, respectively) were synthesized with a 5(5′) phosphothioated CpG motif and assayed for Human CD3ε (hCD3ε) binding via the HPLC size exclusion column. In this method, the aptamers were labelled with Cy5 complementary sequence to the CpG site (Cy5-CpG’). Then, the folded-labelled candidates are incubated, each, with the CD3ε- recombinant protein or with negative control IgG1 (1 hr at 37℃ and 4℃) and analyzed by HPLC ProSEC 300S size exclusion column (Agilent) at 570 nm absorption. Upon protein binding, the aptamer-protein complex has a greater mass than a free aptamer and as a result, the retention time (RT) at the column is expected to be shorter. Inversely, in the case of non-binding aptamer, the RT in the presence of protein will be the same as in the absence of the protein. As a control, PolyT sequence was used.

[2] = biological target: T1, CD3 epsilon; experiment: SPR; details: tags: Fc chimera His tag, Abcam ab220590
[3] = biological target: CD3 epsilon (Jurkat T cells) (Homo sapiens, UniProt P07766 P07766:23-207); experiment: flow; binding to Jurkat cells, 1 h 37 C, PBS 1 mM MgCl2, BSA, tRNA; details: tags: native on Jurkat cells ATCC TIB-152; label: Cy5-CpG' complementary strand
Method: 5 x10⁴ Jurkat cells were washed and re-suspended in x1 folding buffer that contain 0.1% BSA and 0.01% tRNA. 0.1-80 nM of CS6 aptamer were labelled with CpG′-Cy5 tag (1:1 ratio) and folded (95℃ 5 min, ice 10 min, and maintenance at 4℃). Next, the DNA aptamers were mixed with the cells and incubated for 1 hr at 37℃ in V shape 96 well plate under gentle shaking conditions. After incubation, the cells were washed twice with folding buffer X1 and analysed via flow cytometry (CytoFlex).
Subsequently CS6 effective concentration 50 (EC₅₀) was evaluated. A serial dilution of -Cy5 labelled aptamer was incubated with Jurkat cells for 1 hr at 37℃ and assessed for binding via flow cytometry (FIG. 27).

[4] = biological target: T2, Notch2 (Homo sapiens, UniProt Q04721 Q04721:26-1677); experiment: thermofluorimetric analysis with SYBR green; dose-dependent, saturates between 100-200 nM protein; details: tags: Fc fusion, R&D Systems
Method: (§1) TFA was used to determine the binding of CTL3 with its putative target Notch2.100 nM CTL3, 1 uM SYBR green I (sigma), Fc-Notch2 human (R&D Systems) or Fc-CD160 (abcam) at 20, 40, 80, 160, and 320 nM were mixed together and SYBR green and fluorescence was measured from Temp=25° C. to Temp=95° C. at 1 degree/min using RT-PCR, in triplicates. The subsequent experiment was done with 50 nM of either CTL3 (SEQ ID NO: 3), scrambled-CTL3-A (SEQ ID NO: 86), or scrambled-CTL3-B (SEQ ID NO: 87); 1 µM SYBR green I (sigma); Fc-Notch2 human (R&D Systems), Fc-Notch2 mouse (R&D Systems) or Fc-Notch2 rat at 25, 50, 100 and 200 nM similar to the former experiment.
(§2) A Tₘ melting curve profile was generated by measuring SYBR green fluorescence during temperature gradient, to monitor aptamer-protein complexes in the presence of different concentrations of either Notch2 or the non-specific control (CD 160 protein). Only upon the addition of increasing concentrations of Notch2, and not CD160, a dose-dependent change in CTL3-associated fluorescence was measured (FIG. 19). When looking at the total fluorescence graph, high fluorescence intensity can be seen at 25° C., however, when examining the derivative rate of change of […] (dF/dT) curves, the temperature-dependent intensity reached a maximum at 37° C.

[5] = biological target: T3, CD160 (UniProt O95971 O95971:25-159); experiment: thermofluorimetric analysis; specificity control; details: tags: Fc fusion, abcam
T3 sequence: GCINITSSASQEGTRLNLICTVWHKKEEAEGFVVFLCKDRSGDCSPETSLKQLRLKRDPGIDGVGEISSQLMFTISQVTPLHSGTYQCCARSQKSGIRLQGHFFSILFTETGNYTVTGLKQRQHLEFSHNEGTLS
Method: as §1, §2

[6] = biological target: T2, Notch2; experiment: thermofluorimetric analysis; details: tags: Fc fusion, R&D Systems
Method: as §1

T2 sequence (Q04721 26-1677, one chain of several): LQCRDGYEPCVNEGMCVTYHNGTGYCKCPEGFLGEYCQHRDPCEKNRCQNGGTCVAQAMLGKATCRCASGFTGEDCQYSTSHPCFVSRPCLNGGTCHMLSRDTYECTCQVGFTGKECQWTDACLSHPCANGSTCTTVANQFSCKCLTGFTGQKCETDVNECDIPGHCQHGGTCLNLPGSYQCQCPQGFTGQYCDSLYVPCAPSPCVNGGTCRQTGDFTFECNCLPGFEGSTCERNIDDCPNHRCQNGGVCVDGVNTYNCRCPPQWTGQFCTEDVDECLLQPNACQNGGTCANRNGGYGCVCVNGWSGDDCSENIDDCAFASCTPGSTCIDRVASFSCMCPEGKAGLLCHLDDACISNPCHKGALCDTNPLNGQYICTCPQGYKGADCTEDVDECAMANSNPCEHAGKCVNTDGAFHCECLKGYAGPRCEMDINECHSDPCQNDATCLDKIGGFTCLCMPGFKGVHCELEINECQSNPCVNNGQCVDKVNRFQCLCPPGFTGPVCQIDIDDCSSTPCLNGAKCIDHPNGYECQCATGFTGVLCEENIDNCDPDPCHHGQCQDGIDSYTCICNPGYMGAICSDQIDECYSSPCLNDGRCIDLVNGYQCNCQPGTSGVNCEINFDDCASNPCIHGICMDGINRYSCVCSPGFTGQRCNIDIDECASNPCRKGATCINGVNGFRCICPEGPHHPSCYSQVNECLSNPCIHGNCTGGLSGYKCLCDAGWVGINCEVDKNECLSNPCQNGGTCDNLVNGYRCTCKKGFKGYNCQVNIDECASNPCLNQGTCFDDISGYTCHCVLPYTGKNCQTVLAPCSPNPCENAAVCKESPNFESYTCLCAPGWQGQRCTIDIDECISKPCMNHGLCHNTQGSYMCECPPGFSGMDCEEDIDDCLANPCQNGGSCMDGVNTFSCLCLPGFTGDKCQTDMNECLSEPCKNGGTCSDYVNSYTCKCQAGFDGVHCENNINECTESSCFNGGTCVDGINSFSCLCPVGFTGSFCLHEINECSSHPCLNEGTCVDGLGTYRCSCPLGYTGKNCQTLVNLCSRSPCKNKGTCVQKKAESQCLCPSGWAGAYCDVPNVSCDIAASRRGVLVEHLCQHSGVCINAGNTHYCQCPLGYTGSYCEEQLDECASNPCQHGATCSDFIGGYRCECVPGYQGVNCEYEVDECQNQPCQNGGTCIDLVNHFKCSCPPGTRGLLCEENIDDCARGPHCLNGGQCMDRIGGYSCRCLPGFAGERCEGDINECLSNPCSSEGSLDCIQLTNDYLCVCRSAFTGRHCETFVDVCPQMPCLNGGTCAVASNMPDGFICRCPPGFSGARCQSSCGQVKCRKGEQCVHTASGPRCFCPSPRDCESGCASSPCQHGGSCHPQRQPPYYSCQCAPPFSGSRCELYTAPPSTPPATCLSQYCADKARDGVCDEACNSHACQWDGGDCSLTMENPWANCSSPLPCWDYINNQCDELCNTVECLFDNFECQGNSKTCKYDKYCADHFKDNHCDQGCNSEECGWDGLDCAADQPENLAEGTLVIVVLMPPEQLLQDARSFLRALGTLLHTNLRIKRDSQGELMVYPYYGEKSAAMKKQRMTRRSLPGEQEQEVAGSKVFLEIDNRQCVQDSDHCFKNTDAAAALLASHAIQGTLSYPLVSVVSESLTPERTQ
T1 sequence (P07766 23-126, one chain of several): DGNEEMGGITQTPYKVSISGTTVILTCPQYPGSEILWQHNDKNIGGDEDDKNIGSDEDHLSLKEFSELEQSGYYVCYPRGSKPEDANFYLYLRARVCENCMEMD
Sequence of CD3 epsilon (Jurkat T cells) (P07766 23-207, one chain of several): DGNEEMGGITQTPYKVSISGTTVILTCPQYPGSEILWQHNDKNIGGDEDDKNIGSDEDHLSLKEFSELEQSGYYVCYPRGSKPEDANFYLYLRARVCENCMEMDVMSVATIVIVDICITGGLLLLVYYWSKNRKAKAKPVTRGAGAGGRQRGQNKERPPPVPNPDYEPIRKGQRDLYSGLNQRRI

B1: PolyT control (ssDNA)
DNA: TCGTCGTCGCGGTTCGCGTCCGTTTTTTTTTTTTTTTTTTTTTTTTTTTTTTTTTTTTTTTTTTTTTTTTTTT
B1: no binding [1].

Binder ATCGTATAAGGGCTGCTTAGGATTGCGATAATACGGTCAA (ssDNA) [CS6] has a Kd [2] of 31 nM.

B2: CpG1-CS6 (ssDNA)
DNA: TCGTCGTCGCGGTTCGCGTCCGTATCGTATAAGGGCTGCTTAGGATTGCGATAATACGGTCAA
modifications: PS on first five 5' nucleotides of CpG motif
In the case of B2, the EC50 [3] is reported as 19.6 nM.

GCATACCTTTCGTATGCCTTTTTGACCCGTATTTTTGCCCTACCCTTCGG (ssDNA) [CTL3]: binds [4]; no binding [5].

GTTCTTATAATCGCCTCTGCGCTATGTTCTTGCTCGCCTTCCATATCGCT (ssDNA) [Scrambled-CTL3-A]: no binding [6].

TCTTTCGTTAGCGCTTCTCTCTTGCGATTCCGACCGCATATTCACGTCTT (ssDNA) [Scrambled-CTL3-B]: no binding [6].
